Data set [1] relates to CD138+ RPMI 8226 cells. Kind of data set: Antibody binding to RPMI 8226 cells by flow cytometry. Details: species or system human. Particulars: FIG. 3. The procedure: (§1) In one experiment, the humanized variants of monoclonal antibody 2810 were assessed for their capacity to bind to CD138 on the surface of cells. Briefly, the humanized variants of antibody 2810 were produced in HEK 293 cells following transient transfection. The antibodies were then serially diluted three-fold. Antibody binding to membrane CD138 was evaluated using the CD138+ human lymphoblastic myeloma cell line U266 and quantified by flow cytometry. Antibody cell binding was reported as geometric mean fluorescence intensity (MFI). Binding data were plotted using nonlinear regression analysis and a 4-parameter curve fit.
(§2) First, humanized anti-CD138 antibody variants 3821, 4321, 4320, 4521, 4326, and 3820 were evaluated for binding to three different CD138+ multiple myeloma related cell lines: MM1.S, LP-1, and RPMI 8226. Antibody binding was measured by flow cytometry as described in Example 15.

Data set [2] deals with CD138+ human lymphoblastic myeloma U266 cells. Briefly: Luciferase-based ADCC reporter bioassay (Jurkat FcγRIIIa effector cells) against U266. The data set is classed as cell-based. Particulars: 3-fold dilutions from 10 μg/mL, E:T 10:1, 16 h, FIG. 4. The procedure:
(§3) In another experiment, the ADCC activity of the humanized variants of anti-CD138 antibody 2810 was assessed. Briefly, the humanized variant antibodies were produced by transient transfection of HEK 293 cells metabolically altered for purposes of reduced Fc fucosylation. The antibodies were then evaluated for antibody dependent cellular cytotoxicity (ADCC) activity against CD138^+ human lymphoblastic myeloma U266 cells in a luciferase based ADCC reporter assay using, as effector cells, engineered Jurkat cells stably transfected with the human FcγRIIIa receptor. U266 cells were incubated with mAbs that were 3-fold serially diluted from a starting concentration of 3 μg/mL and added to effector cells and CD138+U266 multiple myeloma target cells at a cell ratio of effector:target of 10:1. After 16-hour incubation at 37° C., luciferase activity was assessed as a measure of ADCC activity and reported as relative luminescence units (RLU). ADCC data were plotted using nonlinear regression analysis and a 4-parameter curve fit.
(§4) Second, humanized anti-CD138 antibody variants 3821, 4321, 4320, 4521, 4326, and 3820 were assessed for ADCC activity against U266, MM1.S, LP-1, and RPMI 8226 CD138^+ multiple myeloma cell lines using a luciferase based ADCC reporter assay, as described in Example 15. CD138^+ target cells were incubated with anti-CD138 antibodies that were serially diluted 3-fold starting at a concentration of 10 μg/mL, and subsequently added to FcγRIIIa effector cells at a cell ratio of effector:target cell (E:T of 10:1). After a 16 hour incubation at 37° C., cellular luciferase levels were quantified as a measure of ADCC activity and reported as relative luminescence units (RLU).
Briefly, the two antibodies were evaluated for ADCC activity against CD138^+ human lymphoblastic myeloma U266 cells in a luciferase based ADCC reporter assay using, as effector cells, engineered Jurkat cells stably transfected with the human FcγRIIIa receptor as described in Example 1. This comparison is summarized in FIG. 9B with data normalized as fold-induction of ADCC activity relative to the minus antibody control.

The subject of data set [3] is CD138+ RPMI 8226 cells. Kind of data set: Luciferase-based ADCC reporter assay against RPMI 8226. To be noted: 3-fold dilutions from 10 μg/mL, E:T 10:1, 16 h, FIG. 4. It counts as cell-based, human. The procedure: as §3, §4
The nature of data set [4]: Differential scanning fluorescence (DSF) thermal stability. The data set is classed as physicochemical. Particulars: PBS pH 7.4, 25-95 °C; for TM1: first thermal transition; for TM2: second thermal transition. The text has this:
Thermal stability represents an important property of antibodies and is used as a predictive surrogate of pharmaceutical drug stability in humans based on a relative stability profile as characterized by differential thermal melting profiles. Several methods exist for evaluation of product stability based on thermal melting. These include, for example, circular dichroism (CD), differential scanning calorimetry (DSC), and differential scanning fluorescence (DSF), among others. In this example, the thermal stabilities of select humanized anti-CD138 antibodies were evaluated by DSF. DSF was used to monitor the conformational stability of a protein as it was exposed to increasing thermal stress. The dye, SYPRO Orange®, fluoresces in a hydrophobic environment, such as hydrophobic core residues that are exposed during thermally triggered protein unfolding, or denaturation. In brief, SYPRO® Orange Dye (Sigma Chemical) was diluted 1:500 in phosphate buffered saline (PBS), pH 7.4, without addition of any detergents. Antibodies were likewise diluted in PBS to a target concentration of 0.5 mg/mL. 15 μl of diluted antibody and fluorescent dye were added 1:1 (v/v) into a 96 well microtiter plate and thoroughly mixed by repeat pipetting. Thermal scans were carried out using a real-time quantitative PCR (qPCR) thermal cycler with fluorescence detection capabilities. Scans were initiated at 25° C. with incremental increase in well temperature of 1° C. ramp/minute from 25° C. to 95° C. The mid-point (Tm) between native state and the first unfolding event was reported as the transition temperature or melt temperature (TM). TMs were then calculated based on transformation of the data using the first derivative of the fluorescence signal versus time. (dfluoresence/dtime) (FIG. 7).

Data set [5] deals with CD138+ MM1.S cells. Kind of data set: Antibody binding to MM1.S cells by flow cytometry. Details: species or system human. To be noted: FIG. 3. The procedure: as §1, §2
The subject of data set [6] is CD138+ MM1.S cells. Kind of data set: Luciferase-based ADCC reporter assay against MM1.S. To be noted: 3-fold dilutions from 10 μg/mL, E:T 10:1, 16 h, FIG. 4. The data set is classed as cell-based, human. As to the method:
as §3, §4

Data set [7] deals with CD138+ LP-1 cells. Kind of data set: Antibody binding to LP-1 cells by flow cytometry. Details: species or system human. Particulars: FIG. 3. As to the method:
as §1, §2

For data set [8], the system named is CD138+ LP-1 cells. Briefly: Luciferase-based ADCC reporter assay against LP-1. To be noted: 3-fold dilutions from 10 μg/mL, E:T 10:1, 16 h, FIG. 4. It counts as cell-based, human. As to the method:
as §3, §4

Where a chain is given by its changes, count along the chain named.

Experimental for MM1.S (Luc) cells: The mice (N=9 per group) were distributed to ensure that the mean whole-body tumor burden for all groups was within 10% of the overall mean whole-body tumor burden for the study population. Treatment was initiated on day 14 post tumor implant. […] Treatment in all groups was discontinued at Day 53; surviving animals were monitored for an additional 3 weeks out to Day 73 (discontinuation phase of the study).
Whole body tumor burden was monitored by bioluminescence. […] BLI was performed using an IVIS Lumina S5 (PerkinElmer, MA). Animals were imaged five at a time under 1-2% isoflurane gas anesthesia. […] Large binning of the CCD chip was used, and the exposure time was adjusted (5 seconds to 2 minutes) to obtain at least several hundred counts per image and to avoid saturation of the CCD chip Animals were imaged once weekly at staging and on days 14, 21, 29, 36, 43, 53, and 73 (end of study) for all animals remaining on study. Images were analyzed using Living Image 4.7.1 (PerkinElmer, MA) software. Whole body fixed-volume regions of interest (ROIs) were placed on prone and supine images for each individual animal and labeled based on animal identification. Total flux (photons/sec) was calculated and exported for all ROIs to facilitate analyses between groups. The prone and supine ROIs were summed together to estimate whole body tumor burden. Subject ROIs were also placed over each mouse, and region-specific ROIs were placed over spine and hindlimbs for each animal. These ROIs were then quantified independent of the whole-body ROIs in order to calculate signal from only hind limbs or spine.
Primary and secondary efficacy endpoints were generated using in vivo whole body BLI and included tumor burden assessment as described herein. Endpoints included whole body BLI ratio T/C (where T=treatment group and C=vehicle control) measured on each imaging day and reported on day 36 and tumor growth delay as measured as time to tumor burden as pre-defined as a BLI signal of 1.0×10^9 p/s. Additional efficacy endpoints included tumor regression, tumor free survival (TFS), and median life span normalized to vehicle control (% increased life span); this latter endpoint was calculated based on the first day of treatment and not the day of implant. Overall survival was calculated based on animals remaining on study.
Additional measurements included body weights (3× weekly), daily clinical observations and necropsy following euthanasia. Pre-defined euthanasia criteria were related to disease progression and included >20% loss in body weight or disease-related morbidity such as hind limb paralysis, paresthesia, or other signs of severe CNS or musculoskeletal impairment.

Take `CC(C)C[C@H](NC(=O)[C@H](Cc1ccccc1)NC(=O)c1cnccn1)B(O)O` [bortezomib, [(1R)-3-Methyl-1-[[(2S)-1-oxo-3-phenyl-2-[(pyrazinylcarbonyl)amino]propyl]amino]butyl]boronic Acid, reference compound]: in the data set with MM1.S (Luc) cells (FIG. 21), the “Change in body weight” value is “Loss of body weight”. In the data set on MM1.S (Luc) cells (bortezomib single agent, day 23), the “Loss of weight of euthanized animal” value is −24%. The molecule also returned a Treatment related death in the data set on MM1.S (Luc) cells (bortezomib single treatment group, initially 2 mg/kg, early euthanasia day 23) of 11%. Also, the “Survival (animals remaining on study to end of study)” value in the data set on MM1.S (Luc) cells (day 73, treatment discontinued day 53) is “none of the animals survived”. The “Incidence of complete or partial regression” value in the data set with MM1.S (Luc) cells (end of dosing phase) is listed as “None”. The “Tumor growth delay (time to BLI 1.0×10^9 p/s)” value in the data set on MM1.S (Luc) cells (mAb 4320 4 mg/kg, bortezomib 1 mg/kg i.p. twice weekly) came out at 10.6 days. Further, in the data set with MM1.S (Luc) cells (mAb 4320 4 mg/kg, bortezomib 1 mg/kg i.p. twice weekly, day 14-53), the “Increase in life span relative to vehicle control” value was found to be 40%. For the same molecule, in the data set on MM1.S (Luc) cells (mouse, in vivo), the Tolerability / toxicity entry was “treatment related toxicity was observed”.

B1: mAb 3821: humanized anti-CD138 antibody; VH SEQ ID NO: 466, VL SEQ ID NO: 476 (antibody, V domains shown)
VH: QVQLVQSGAEVKKPGSSVKVSCKASGYSFSSYYMHWVRQAPGQGLEWMGTIHPSDSTANYNQKFKGRVTITVDKSTSTAYMELSSLRSEDTAVYYCANFVYWGQGTTVTVSS
VL: DIVMTQTPLSLSVTPGQPASISCKSSKSLLYKDGKTYLNWFLQKPGQSPQLLIYVVSTRASGVPDRFSGSGSGTDFTLKISRVEAEDVGVYYCQQLVQYPYTFGQGTKLEIK
Turning to B1, the “Antibody binding by flow cytometry” value with CD138+ RPMI 8226 cells [1], with CD138+ MM1.S cells [5] and in the data set with CD138+ LP-1 cells [7] was “dose-dependent binding” each time. In addition, the “ADCC activity (RLU)” value (in data set [2]; with CD138+ RPMI 8226 cells [3]; in the data set with CD138+ MM1.S cells [6]; in the data set on CD138+ LP-1 cells [8]) was “induced ADCC activity” throughout. Also, in [4], the TM1 was 69.1 °C. Also, the TM2 in [4] was 77.7 °C.

B2: mAb 4321: humanized anti-CD138 antibody; VH SEQ ID NO: 471, VL SEQ ID NO: 476 (antibody, V domains shown)
VH: B1 VH with S16A, A58T, K65Q, I70M, K74T, S77R
VL: B1 VL
For the molecule B2, the “Antibody binding by flow cytometry” value in the data set on CD138+ RPMI 8226 cells [1], with CD138+ MM1.S cells [5] and in the data set on CD138+ LP-1 cells [7] was “dose-dependent binding” in each case. Also, the “ADCC activity (RLU)” value (in data set [2]; in the data set with CD138+ RPMI 8226 cells [3]; with CD138+ MM1.S cells [6]; in the data set on CD138+ LP-1 cells [8]) was “induced ADCC activity” in each case. This molecule also returned a TM1 in data set [4] of 69.3 °C. Moreover, the TM2 in data set [4] came to 76.9 °C.

B3: mAb 4326: humanized anti-CD138 antibody; VH SEQ ID NO: 471, VL SEQ ID NO: 481 (antibody, V domains shown)
VH: B1 VH with S16A, A58T, K65Q, I70M, K74T, S77R
VL: DIVMTQSPDSLAVSLGERATINCKSSQSLLYKDGKTYLNWFQQKPGQPPKLLIYVVSTRASGVPDRFSGSGSGTDFTLTISSLQAEDVAVYYCQQLVEYPYTFGQGTKLEIK
With B3, the “Antibody binding by flow cytometry” value in the data set on CD138+ RPMI 8226 cells [1], in the data set on CD138+ MM1.S cells [5] and in the data set on CD138+ LP-1 cells [7] was “dose-dependent binding” throughout. For the same molecule, the “ADCC activity (RLU)” value (in data set [2]; in the data set with CD138+ RPMI 8226 cells [3]; in the data set with CD138+ MM1.S cells [6]; in the data set on CD138+ LP-1 cells [8]) was “induced ADCC activity” throughout.

B4: mAb 4521: humanized anti-CD138 antibody; VH SEQ ID NO: 473, VL SEQ ID NO: 476 (antibody, V domains shown)
VH: B1 VH with S16A, S28N, S30A, A58T, I70M, K74T
VL: B1 VL
Take B4: the “Antibody binding by flow cytometry” value with CD138+ RPMI 8226 cells [1], with CD138+ MM1.S cells [5] and in the data set with CD138+ LP-1 cells [7] was “dose-dependent binding” each time. Moreover, the “ADCC activity (RLU)” value (in data set [2]; in the data set on CD138+ RPMI 8226 cells [3]; in the data set on CD138+ MM1.S cells [6]; with CD138+ LP-1 cells [8]) was “induced ADCC activity” in each case.

B5: mAb 3820: humanized anti-CD138 antibody; VH SEQ ID NO: 466, VL SEQ ID NO: 475 (antibody, V domains shown)
VH: B1 VH
VL: B1 VL with Q98E
As to B5, the “Antibody binding by flow cytometry” value in the data set with CD138+ RPMI 8226 cells [1], with CD138+ MM1.S cells [5] and in the data set on CD138+ LP-1 cells [7] was “dose-dependent binding” throughout. The “ADCC activity (RLU)” value (in data set [2]; in the data set on CD138+ RPMI 8226 cells [3]; with CD138+ MM1.S cells [6]; in the data set on CD138+ LP-1 cells [8]) was “induced ADCC activity” in each case.

The values above are taken from patent US12338291B2, “Humanized antibody molecules to CD138 and uses thereof” (VISTERRA, INC., priority 2019, dated 2025).
